Columns and labels:
murine EpCAM = target: T1, murine EpCAM (murine, UniProt Q99JW5 24-315); assay: flow cytometry, muEpCAM+ CT26muEpCAM cells
T1 construct: Stably expressed on CT26muEpCAM cl25 cells; also called muEpCAM; CT26muEpCAM cells
T1 sequence: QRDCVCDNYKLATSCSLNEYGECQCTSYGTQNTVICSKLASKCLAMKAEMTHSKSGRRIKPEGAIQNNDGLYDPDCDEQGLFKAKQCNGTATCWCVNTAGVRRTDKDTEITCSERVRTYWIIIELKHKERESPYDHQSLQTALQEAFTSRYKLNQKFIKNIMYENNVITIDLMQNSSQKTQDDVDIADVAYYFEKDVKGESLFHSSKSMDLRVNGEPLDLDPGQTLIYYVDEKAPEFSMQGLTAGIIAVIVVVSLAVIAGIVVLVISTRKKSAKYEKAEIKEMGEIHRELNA
Procedure: (§1) The binding to cell surface murine EpCAM was analysed using mouse EpCAM-positive CT26muEpCAM c125 cells, which stably expresses murine EpCAM. The specificity of binding was analysed by determination of binding to muEpCAM-negative cell line CT26muFAP, which stably expresses murine FAP.
(§2) For analysis of binding of the antigen binding molecules, 0.5×10⁵ CT26muEpCAM or 0.5×10⁵ CT26muFAP cells were added to wells of round-bottomed suspension cell 96-well plates (greiner bio-one, cellstar, Cat. No. 650185). For discrimination of live and dead cells, samples were stained with Zombie Aqua Viability Dye (Biolegend, Cat. No 423102) in PBS for 10 minutes at room temperature. Cells were then washed once with FACS buffer and subsequently stained for 90 minutes at 4° C. in the dark in 50 μL/well 4° C.
(§3) Plates were finally resuspended in 85 μL/well FACS-buffer and acquired the same day using 4-laser LSR-II cytometer (BD Bioscience with DIVA software).

murine FAP = target: T2, murine FAP (murine, UniProt P97321 1-761); assay: flow cytometry on CT26muFAP cells, which stably express murine FAP
T2 construct: whole, on cells; CT26muFAP served as the muEpCAM-negative specificity control cell line; also called muFAP; CT26muFAP cells
T2 sequence (looked up): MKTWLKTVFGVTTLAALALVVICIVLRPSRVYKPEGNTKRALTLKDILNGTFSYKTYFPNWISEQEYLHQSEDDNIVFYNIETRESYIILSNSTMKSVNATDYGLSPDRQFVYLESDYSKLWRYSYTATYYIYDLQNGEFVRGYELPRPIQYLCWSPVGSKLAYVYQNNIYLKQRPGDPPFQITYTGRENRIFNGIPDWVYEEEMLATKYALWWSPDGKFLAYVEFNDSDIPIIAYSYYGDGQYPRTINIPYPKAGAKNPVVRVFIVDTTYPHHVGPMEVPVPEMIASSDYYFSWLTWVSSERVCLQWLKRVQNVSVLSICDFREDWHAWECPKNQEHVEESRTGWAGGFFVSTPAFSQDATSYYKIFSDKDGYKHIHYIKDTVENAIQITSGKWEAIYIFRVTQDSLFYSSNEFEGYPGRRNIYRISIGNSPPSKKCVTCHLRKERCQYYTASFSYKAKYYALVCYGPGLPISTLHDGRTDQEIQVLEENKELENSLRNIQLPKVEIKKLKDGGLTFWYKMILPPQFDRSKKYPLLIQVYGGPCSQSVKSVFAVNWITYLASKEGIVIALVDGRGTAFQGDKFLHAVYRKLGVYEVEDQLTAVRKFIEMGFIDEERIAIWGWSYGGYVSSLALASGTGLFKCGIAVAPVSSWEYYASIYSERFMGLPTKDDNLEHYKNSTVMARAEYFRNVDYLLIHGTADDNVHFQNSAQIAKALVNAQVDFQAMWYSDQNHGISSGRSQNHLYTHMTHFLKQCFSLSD
Procedure: as §1, §2, §3

human OX40 [1] = target: T3, human OX40 (human, UniProt P43489 29-277); assay: flow cytometry, activated human OX40+ CD4+ T cells
T3 construct: Recombinant on HeLa reporter cells in the NFkB assay; also called huOX40; CD134
T3 sequence: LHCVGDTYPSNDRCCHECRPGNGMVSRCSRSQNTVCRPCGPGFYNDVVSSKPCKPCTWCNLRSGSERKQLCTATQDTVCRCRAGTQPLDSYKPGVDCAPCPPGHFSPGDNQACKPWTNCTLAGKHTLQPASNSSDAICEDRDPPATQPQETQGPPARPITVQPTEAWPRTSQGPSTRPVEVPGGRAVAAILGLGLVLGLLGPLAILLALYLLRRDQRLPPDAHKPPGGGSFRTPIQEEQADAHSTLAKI
Procedure: (§4) For discrimination of live and dead cells, samples were stained with Zombie Aqua Viability Dye (Biolegend, Cat. No. 423102) in DPBS for 10 minutes at room temperature. […] After three washes with excess FACS buffer, cells were stained for 30 minutes at 4° C. in the dark in 25 μL/well 4° C. FACS buffer containing a mixture of fluorescently labeled anti-human CD4 (clone RPA-T4, mouse IgG1 k, BioLegend, Cat. No. 300532), anti-human CD8 (clone RPa-T8, mouse IgG1k, BioLegend, Cat.-No. 3010441) and Fluorescein isothiocyanate (FITC)-conjugated AffiniPure anti-human IgG Fcγ-fragment-specific goat IgG F(ab′)2 fragment (Jackson ImmunoResearch, Cat. No. 109 096 098).

human OX40 [2] = target: T3, human OX40; assay: flow cytometry, activated human OX40+ CD8+ T cells
Procedure: as §4

[3] = target: T4, biotinylated monomeric human OX40 antigen Fc(kih) fusion molecule (human, UniProt P0DOX5 223-449 = IgG part, biotinylated at the C-terminal Avi tag (BirA)); assay: ELISA, biotinylated human OX40 on neutravidin plates, Fab supernatants, anti-Flag/HRP
T4 construct: also called biotinylated human OX40; hu OX40
Procedure: Selections were carried out over 3 or 4 rounds using constant antigen concentrations of 100 nM. […] In rounds 2 and 4, in order to avoid enrichment of binders to neutravidin, capture of antigen: phage complexes was performed by addition of 5.4×10⁷ streptavidin-coated magnetic beads. […] Fab-containing bacterial supernatants were added and binding Fabs were detected via their Flag-tags using an anti-Flag/HRP secondary antibody. […] They were bacterially expressed in a 0.5 liter culture volume, affinity purified and further characterized by SPR-analysis using BioRad's ProteOn XPR36 biosensor.

human EpCAM = target: T5, human EpCAM (human, UniProt P16422 24-314); assay: flow cytometry, huEpCAM+ KATO-III cells
T5 construct: Endogenous on KATO-III cells and stably expressed on NIH/3T3huEpCAM clone 44 cells; also called huEpCAM; KATO-III cells
T5 sequence: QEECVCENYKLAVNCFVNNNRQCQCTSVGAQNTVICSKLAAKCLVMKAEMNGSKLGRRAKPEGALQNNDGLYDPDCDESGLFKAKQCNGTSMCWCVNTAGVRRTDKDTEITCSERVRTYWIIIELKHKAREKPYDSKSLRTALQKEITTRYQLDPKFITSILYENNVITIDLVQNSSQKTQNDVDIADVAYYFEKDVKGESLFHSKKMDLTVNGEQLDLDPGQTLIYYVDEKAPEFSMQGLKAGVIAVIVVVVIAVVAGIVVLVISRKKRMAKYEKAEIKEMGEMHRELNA
Procedure: For discrimination of live and dead cells, samples were stained with Zombie Aqua Viability Dye (Biolegend, Cat. No 423102) in PBS for 10 minutes at room temperature. Cells were then washed once with FACS buffer and subsequently stained for 90 minutes at 4° C. in the dark in 50 μL/well 4° C.

B1: monospecific, bivalent anti-murine EpCAM IgG (parental bivalent anti-muEpCAM antibody) (antibody, V domains shown)
VH: EVQLAESGGGLVQPGRSMKLSCAASGFTFSNFPMAWVRQAPTKGLEWVATISTSGGSTYYRDSVKGRFTISRDNAKSTLYLQMNSLRSEDTATYYCTRTLYILRVFYFDYWGQGVMVTVSS
VL: DIQMTQSPASLSASLGETVSIECLASEGISNDLAWYQQKSGKSPQLLIYATSRLQDGVPSRFSGSGSGTRYSLKISGMQPEDEADYFCQQSYKYPWTFGGGTKLELK
notes: it was detected with anti-mouse IgG Fc; also called muEpCAM IgG; G8.8
- EC50 (murine EpCAM): 2.87 nM
- binding result (murine FAP): no binding

B2: bispecific, tetravalent anti-human OX40, bivalent anti-human EpCAM 4+2 molecule (OX40 49B4/EpCAM 3-17I P329GLALA 4+2) (bispecific antibody, human IgG1, kappa, L234A L235A)
heavy: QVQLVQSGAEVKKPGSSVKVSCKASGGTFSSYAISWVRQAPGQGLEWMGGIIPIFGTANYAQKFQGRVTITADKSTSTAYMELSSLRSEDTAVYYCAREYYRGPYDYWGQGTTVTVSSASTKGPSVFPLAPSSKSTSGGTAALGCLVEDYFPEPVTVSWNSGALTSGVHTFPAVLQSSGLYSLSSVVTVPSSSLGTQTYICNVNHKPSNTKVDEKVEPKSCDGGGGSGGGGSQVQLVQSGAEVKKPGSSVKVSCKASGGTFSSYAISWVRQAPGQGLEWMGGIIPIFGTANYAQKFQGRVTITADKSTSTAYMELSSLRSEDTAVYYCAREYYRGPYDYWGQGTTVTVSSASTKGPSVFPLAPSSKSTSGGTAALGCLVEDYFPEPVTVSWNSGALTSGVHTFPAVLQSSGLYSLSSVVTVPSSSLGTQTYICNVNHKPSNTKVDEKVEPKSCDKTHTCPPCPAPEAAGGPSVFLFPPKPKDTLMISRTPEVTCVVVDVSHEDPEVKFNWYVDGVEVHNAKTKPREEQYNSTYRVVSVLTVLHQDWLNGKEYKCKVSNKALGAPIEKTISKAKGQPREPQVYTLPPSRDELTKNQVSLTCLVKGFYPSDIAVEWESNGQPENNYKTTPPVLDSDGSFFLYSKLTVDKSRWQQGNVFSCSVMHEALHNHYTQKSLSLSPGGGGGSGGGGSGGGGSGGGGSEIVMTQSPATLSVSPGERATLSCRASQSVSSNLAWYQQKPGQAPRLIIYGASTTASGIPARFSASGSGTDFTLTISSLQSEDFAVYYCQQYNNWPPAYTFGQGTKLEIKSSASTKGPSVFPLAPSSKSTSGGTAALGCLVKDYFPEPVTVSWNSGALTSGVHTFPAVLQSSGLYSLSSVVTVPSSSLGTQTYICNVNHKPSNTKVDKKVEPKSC
light 1: DIQMTQSPSTLSASVGDRVTITCRASQSISSWLAWYQQKPGKAPKLLIYDASSLESGVPSRFSGSGSGTEFTLTISSLQPDDFATYYCQQYSSQPYTFGQGTKVEIKRTVAAPSVFIFPPSDRKLKSGTASVVCLLNNFYPREAKVQWKVDNALQSGNSQESVTEQDSKDSTYSLSSTLTLSKADYEKHKVYACEVTHQGLSSPVTKSFNRGEC
light 2: QVQLVQSGAEVKKPGSSVKVSCKASGGTFSSYAISWVRQAPGQGLEWMGGIIPIFGTANYAQKFQGRVTITADESTSTAYMELSSLRSEDTAVYYCARGLLWNYWGQGTLVTVSSASVAAPSVFIFPPSDEQLKSGTASVVCLLNNFYPREAKVQWKVDNALQSGNSQESVTEQDSKDSTYSLSSTLTLSKADYEKHKVYACEVTHQGLSSPVTKSFNRGEC
notes: huIgG1 P329G LALA, no knob-into-hole; also called 4+2 huEpCAM; 4 + 2 anti-huOX40, anti-huEpCAM
- EC50 (human OX40 [1]): 0.01 nM
- EC50 (human OX40 [2]): 0.04 nM

B3: anti-OX40 clone 20B7 (phage-derived Fab) (Fab, V domains shown)
VH: QVQLVQSGAEVKKPGSSVKVSCKASGGTFSSYAISWVRQAPGQGLEWMGGIIPIFGTANYAQKFQGRVTITADKSTSTAYMELSSLRSEDTAVYYCARVNYPYSYWGDFDYWGQGTTVTVSS
VL: DIQMTQSPSTLSASVGDRVTITCRASQSISSWLAWYQQKPGKAPKLLIYDASSLESGVPSRFSGSGSGTEFTLTISSLQPDDFATYYCQQYQAFSLTFGQGTKVEIK
notes: Tested as a Flag-tagged Fab in bacterial supernatant (DP88-4 library); also called OX40 (20B7)
- binding result [3]: binds

B4: monospecific, bivalent anti-human EpCAM IgG (parental bivalent anti-human EpCAM antibody, clone 3-17I, Affitech) (antibody, V domains shown)
VH: QVQLVQSGAEVKKPGSSVKVSCKASGGTFSSYAISWVRQAPGQGLEWMGGIIPIFGTANYAQKFQGRVTITADESTSTAYMELSSLRSEDTAVYYCARGLLWNYWGQGTLVTVSS
VL: EIVMTQSPATLSVSPGERATLSCRASQSVSSNLAWYQQKPGQAPRLIIYGASTTASGIPARFSASGSGTDFTLTISSLQSEDFAVYYCQQYNNWPPAYTFGQGTKLEIK
notes: IgG; it was detected with an anti-human IgG secondary; also called huEpCAM IgG; 3-171
- EC50 (human EpCAM): 3.11 nM

B5: anti-OX40 clone 49B4 (phage-derived Fab) (Fab, V domains shown)
VH: QVQLVQSGAEVKKPGSSVKVSCKASGGTFSSYAISWVRQAPGQGLEWMGGIIPIFGTANYAQKFQGRVTITADKSTSTAYMELSSLRSEDTAVYYCAREYYRGPYDYWGQGTTVTVSS
VL: DIQMTQSPSTLSASVGDRVTITCRASQSISSWLAWYQQKPGKAPKLLIYDASSLESGVPSRFSGSGSGTEFTLTISSLQPDDFATYYCQQYSSQPYTFGQGTKVEIK
notes: Tested as a Flag-tagged Fab in bacterial supernatant (DP88-4 library); also called OX40 (49B4)
- binding result [3]: binds

B6: anti-OX40 clone 1G4 (phage-derived Fab) (Fab, V domains shown)
VH: QVQLVQSGAEVKKPGSSVKVSCKASGGTFSSYAISWVRQAPGQGLEWMGGIIPIFGTANYAQKFQGRVTITADKSTSTAYMELSSLRSEDTAVYYCAREYGSMDYWGQGTTVTVSS
VL: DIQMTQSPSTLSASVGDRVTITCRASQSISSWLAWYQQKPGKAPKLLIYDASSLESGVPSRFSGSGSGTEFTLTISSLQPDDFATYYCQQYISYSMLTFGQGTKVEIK
notes: Tested as a Flag-tagged Fab in bacterial supernatant (DP88-4 library); also called OX40 (1G4)
- binding result [3]: binds

B7: anti-OX40 clone 17A9 (phage-derived Fab) (Fab, V domains shown)
VH: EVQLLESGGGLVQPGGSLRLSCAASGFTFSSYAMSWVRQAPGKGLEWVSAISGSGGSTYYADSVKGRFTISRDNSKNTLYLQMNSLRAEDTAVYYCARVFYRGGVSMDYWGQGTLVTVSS
VL: SSELTQDPAVSVALGQTVRITCQGDSLRSYYASWYQQKPGQAPVLVIYGKNNRPSGIPDRFSGSSSGNTASLTITGAQAEDEADYYCNSRVMPHNRVFGGGTKLTV
notes: Tested as a Flag-tagged Fab in bacterial supernatant (lambda-DP47 library); also called OX40 (17A9)
- binding result [3]: binds

Reference: US20200231691A1 (Hoffmann-La Roche, published 2020)
